Legend:
[1] = target: taxol-stabilized porcine brain GDP-microtubules (porcine) (UniProt P02550)
[2] = target: taxol-stabilized porcine brain GDP-microtubules (porcine) (UniProt P02550); remark: listed apart in the source

UniProt P02550, sequence (P02550 46-451): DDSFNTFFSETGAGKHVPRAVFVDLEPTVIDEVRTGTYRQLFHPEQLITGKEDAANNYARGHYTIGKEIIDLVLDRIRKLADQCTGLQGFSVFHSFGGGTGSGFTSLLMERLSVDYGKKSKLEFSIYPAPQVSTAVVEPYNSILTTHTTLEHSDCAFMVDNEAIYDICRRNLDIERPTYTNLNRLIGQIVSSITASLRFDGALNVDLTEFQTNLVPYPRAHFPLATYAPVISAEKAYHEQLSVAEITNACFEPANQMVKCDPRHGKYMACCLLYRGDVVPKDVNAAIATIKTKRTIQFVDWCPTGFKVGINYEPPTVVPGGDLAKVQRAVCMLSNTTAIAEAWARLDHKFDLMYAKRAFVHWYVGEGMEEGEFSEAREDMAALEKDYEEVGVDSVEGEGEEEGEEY

K (1/2,MT) of the microtubule-stimulated ATPase activity [1] [µM] | microtubule detachment rate under load [2] [s⁻¹] | Substance
4.2 | 3.9 | GcKIF5A (enzyme)
2.2 | 1.3 | MmKIF5A (from UniProt P33175 1-1027) (enzyme)

Reference: doi:10.1101/2025.05.04.652084
